Sequences and labels used below:
B1: PRT-384 (protein)
chain: MVTSVWTKGVTPPTNFTYGEDVLHAPYVANQGWYDITKTFNGKDDLLCGAATAGNMLHWWFDQNKEQIENYLKKHPEKQKINFNGEQMFDVKEAIDTKDSQLDSKLFEYFKEKAFPNLSTKHLGVFPDHVIDMFINGYRLSLTNHGPTPVKRGSKDPRGGIFDAVFTRGDQSKLLTNRHDFKEKTLKEISDLIKQELTEGKALGISHTYANVRINHVINLWGADFDAEGNLEAIYVTDSDSNASIGMKKYFVGVNSNGKVAISAKEIEEDNIGAQVLGLFTLSTGQDIWNQTN
B2: PRT-392 (protein)
chain: B1 chain with N117Y, D170V
B3: PRT-439 (protein)
chain: MSQTEDSESLQRLRDIEDFQAEKKKQNVVYTKWLDGVDVKDHDFRKIVDGNIAYYATPLLNGRGFYDINKDFNRDSDKCAAAVAANMFHYWLDRNRDNVDRFLRQNPEKHGIIELPDGQLKLSDFLNTYESDDGYRDKSKLFDFISNNFNGPVWTDKLLDNYINGYAYNYKYGRLIEDPTKNTSKINFFKEVFNEKILTNNHSIRNQNEFSVLLSEALYTGKAIGLSYGPAGLRHSLGHIISVWGADLDADGNVVAIYVTDSDDKKLTIGDERVGLKRYKISTDDEGRLRLTAYEETHNTGGQIRGLWTLDTGKQAWADYFDKTEQTGTDQAEQ
B4: PRT-442 (protein)
chain: B3 chain with S76N, L175T
B5: PRT-434 (protein)
chain: B3 chain with L175T, S236G
B6: PRT-433 (protein)
chain: B3 chain with L175T, S215I
B7: PRT-598 (protein)
chain: MANQEIRYSEETPSTITSVWTKGVTPPTDFIQNEDVLHAPYIANQGWYDITKTFNGKDDLLCGAATAGNMLHWWFDQNKEQIENYLKKHPEKQKINFNGEQMFDVKEAIDTKDSQTDSALFEYFKDKAFPYLSTKHLGVFPDHVIDMFINGYRLSLTNHGPTPVKRGTKDPRGGIFDAVFTRGDQSKLLTSRHDFKEKTLNEISDLIKQELTEGKALGLSHTYANVRINHVINLWGADFNAEGNLEAIYVTDSDSNASIGMKKYFVGVNSAGKVAISAKEIEGDNIGAQVLGLFTLSTGQDIWNQTNLEHHHHHH
B8: PRT-400 (protein)
chain: MVTSVWTKGVTPPADFTQGEDVFHAPYDANQGWYDITKTFNGKDDLLCGAATAGNMLHWWFDQNKEYIEAYLKKHPEKQKIMFGDQELLDVRKAINTKGSQKNSELFNYFRDKAFPNLSARRLGVMPDLVLDMFINGYYLNVTKTQTTDVNRTYQEKDKRGGIFDAVFTRGDQSKLLTSRHDFKEKGLKEISDLIKQELTEGKALGLSHTYANVRINHVINLWGADFDSDGNLKAIYVTDSDSNASIGMKKYFVGVNSAGKVAISAKEIKEDNIGAQVLGLFTLSTGQDIWNQTN
B9: PRT-408 (protein)
chain: B8 chain with D28V, M126F
B10: PRT-415 (protein)
chain: MTITSVWTKGVTPPTPEDFRYNNEDVLHAPYVANQGWYDITKTFDGKDNLLCGAATAGNMLHWWFDQNKEEIERYLKKHPEKQKIIFNNQELFDVKAAIDTKDSQTNSKLFNYFLDKAFPNLSARQLGVMPDLVLDMFINGYYLNLGKTQSTDVNRPYQDKDKRGGIFDAVFTRGDQTTLLTARHDLKNKGLNEISDLIKQELTEGKALALSHTYANVRINHVINLWGADFDAEGNLIAIYVTDSDANASIGMKKYFVGVNANGKVAISAKKIEGDNIGAQVLGLFTLSTGQDIWQKLS
B11: PRT-424 (protein)
chain: B10 chain with L115R, T290L
B12: PRT-423 (protein)
chain: B10 chain with L115R, V260R
B13: PRT-416 (protein)
chain: B10 chain with L115R, G147P

Positions count from the first letter of the chain named.

The series deals with pooled human IgG (human IgG1, 2, 3 and 4).
Protein B1 displayed an Enzyme Activity Endpoint Assay (purified): Fab′2 of 365 ng/µL, an Enzyme Activity Endpoint Assay (purified): Fc of 0 ng/µL, an Enzyme Activity Endpoint Assay (purified): IgG of 1510 ng/µL and an Enzyme Activity Endpoint Assay (purified): scIgG of 0 ng/µL. Moreover, the Enzyme Activity Endpoint Assay: Fab′2 is 365 ng/µL, the Enzyme Activity Endpoint Assay: Fc turned out to be 0 ng/µL, the Enzyme Activity Endpoint Assay: IgG is 1510 ng/µL and the Enzyme Activity Endpoint Assay: scIgG came to 0 ng/µL.
B2 displayed an Enzyme Activity Endpoint Assay (purified): Fab′2 of 513 ng/µL, an Enzyme Activity Endpoint Assay (purified): Fc of 354 ng/µL, an Enzyme Activity Endpoint Assay (purified): IgG of 0 ng/µL and an Enzyme Activity Endpoint Assay (purified): scIgG of 196 ng/µL. The same protein came in with an Enzyme Activity Endpoint Assay: Fab′2 of 513 ng/µL, an Enzyme Activity Endpoint Assay: Fc of 354 ng/µL, an Enzyme Activity Endpoint Assay: IgG of 0 ng/µL and an Enzyme Activity Endpoint Assay: scIgG of 196 ng/µL.
In turn, B3 displayed an Enzyme Activity Endpoint Assay (purified): Fab′2 of 179 ng/µL, an Enzyme Activity Endpoint Assay (purified): Fc of 191 ng/µL, an Enzyme Activity Endpoint Assay (purified): IgG of 325 ng/µL and an Enzyme Activity Endpoint Assay (purified): scIgG of 528 ng/µL. This protein also displayed an Enzyme Activity Endpoint Assay: Fab′2 of 179 ng/µL, an Enzyme Activity Endpoint Assay: Fc of 191 ng/µL, an Enzyme Activity Endpoint Assay: IgG of 325 ng/µL and an Enzyme Activity Endpoint Assay: scIgG of 528 ng/µL.
In turn, B4 came in with an Enzyme Activity Endpoint Assay: Fab′2 of 18 ng/µL, an Enzyme Activity Endpoint Assay: Fc of 169 ng/µL, an Enzyme Activity Endpoint Assay: IgG of 680 ng/µL and an Enzyme Activity Endpoint Assay: scIgG of 381 ng/µL.
For the protein B5, the Enzyme Activity Endpoint Assay (purified): Fab′2 worked out at 567 ng/µL, the Enzyme Activity Endpoint Assay (purified): Fc turned out to be 314 ng/µL, the Enzyme Activity Endpoint Assay (purified): IgG was 0 ng/µL and the Enzyme Activity Endpoint Assay (purified): scIgG was found to be 234 ng/µL. Besides, the Enzyme Activity Endpoint Assay: Fab′2 was found to be 567 ng/µL, the Enzyme Activity Endpoint Assay: Fc was 314 ng/µL, the Enzyme Activity Endpoint Assay: IgG was found to be 0 ng/µL and the Enzyme Activity Endpoint Assay: scIgG is 234 ng/µL.
B6 yielded an Enzyme Activity Endpoint Assay (purified): Fab′2 of 575 ng/µL, an Enzyme Activity Endpoint Assay (purified): Fc of 489 ng/µL, an Enzyme Activity Endpoint Assay (purified): IgG of 0 ng/µL and an Enzyme Activity Endpoint Assay (purified): scIgG of 224 ng/µL. In addition, the Enzyme Activity Endpoint Assay: Fab′2 came out at 575 ng/µL, the Enzyme Activity Endpoint Assay: Fc amounted to 489 ng/µL, the Enzyme Activity Endpoint Assay: IgG was determined as 0 ng/µL and the Enzyme Activity Endpoint Assay: scIgG was 224 ng/µL.
B7 had an Enzyme Activity Endpoint Assay (purified): Fab'2 of 567 ng/µL, an Enzyme Activity Endpoint Assay (purified): Fc of 172 ng/µL, an Enzyme Activity Endpoint Assay (purified): IgG of 0 ng/µL and an Enzyme Activity Endpoint Assay (purified): scIgG of 213 ng/µL. This protein also had an Enzyme Activity Endpoint Assay: Fab′2 of 567 ng/µL, an Enzyme Activity Endpoint Assay: Fc of 172 ng/µL, an Enzyme Activity Endpoint Assay: IgG of 0 ng/µL and an Enzyme Activity Endpoint Assay: scIgG of 213 ng/µL.
As to B8, the Enzyme Activity Endpoint Assay (purified): Fab′2 came to 556 ng/µL, the Enzyme Activity Endpoint Assay (purified): Fc was found to be 333 ng/µL, the Enzyme Activity Endpoint Assay (purified): IgG was found to be 176 ng/µL and the Enzyme Activity Endpoint Assay (purified): scIgG amounted to 0 ng/µL. Also, the Enzyme Activity Endpoint Assay: Fab′2 stood at 556 ng/µL, the Enzyme Activity Endpoint Assay: Fc was 333 ng/µL, the Enzyme Activity Endpoint Assay: IgG was determined as 176 ng/µL and the Enzyme Activity Endpoint Assay: scIgG amounted to 0 ng/µL.
As for B9, the Enzyme Activity Endpoint Assay: Fab′2 turned out to be 564 ng/µL, the Enzyme Activity Endpoint Assay: Fc was found to be 334 ng/µL, the Enzyme Activity Endpoint Assay: IgG came to 179 ng/µL and the Enzyme Activity Endpoint Assay: scIgG was found to be 0 ng/µL.
As for B10, the Enzyme Activity Endpoint Assay (purified): Fab′2 was 46 ng/µL, the Enzyme Activity Endpoint Assay (purified): Fc came to 225 ng/µL, the Enzyme Activity Endpoint Assay (purified): IgG was found to be 164 ng/µL and the Enzyme Activity Endpoint Assay (purified): scIgG came to 630 ng/µL. The protein also showed an Enzyme Activity Endpoint Assay: Fab′2 of 46 ng/µL, an Enzyme Activity Endpoint Assay: Fc of 225 ng/µL, an Enzyme Activity Endpoint Assay: IgG of 164 ng/µL and an Enzyme Activity Endpoint Assay: scIgG of 630 ng/µL.
For the protein B11, the Enzyme Activity Endpoint Assay: Fab′2 stood at 618 ng/µL, the Enzyme Activity Endpoint Assay: Fc was 348 ng/µL, the Enzyme Activity Endpoint Assay: IgG was 88 ng/µL and the Enzyme Activity Endpoint Assay: scIgG stood at 0 ng/µL.
B12 displayed an Enzyme Activity Endpoint Assay (purified): Fab′2 of 398 ng/µL, an Enzyme Activity Endpoint Assay (purified): Fc of 0 ng/µL, an Enzyme Activity Endpoint Assay (purified): IgG of 1660 ng/µL and an Enzyme Activity Endpoint Assay (purified): scIgG of 0 ng/µL. This protein also showed an Enzyme Activity Endpoint Assay: Fab′2 of 398 ng/µL, an Enzyme Activity Endpoint Assay: Fc of 0 ng/µL, an Enzyme Activity Endpoint Assay: IgG of 1660 ng/µL and an Enzyme Activity Endpoint Assay: scIgG of 0 ng/µL.
Consider B13, for which the Enzyme Activity Endpoint Assay: Fab′2 turned out to be 125 ng/µL, the Enzyme Activity Endpoint Assay: Fc was 258 ng/µL, the Enzyme Activity Endpoint Assay: IgG was found to be 96 ng/µL and the Enzyme Activity Endpoint Assay: scIgG was 453 ng/µL.

(Values after patent publication US20250027068.)
